The assay addresses H. pylori PflB_(Δ140), the periplasmic α-helical domain of paralyzed flagellum protein B (Helicobacter pylori (strain SS1)). As to the kind of experiment: SEC; Superdex 200 10/300 GL, 20 mM Tris-HCl pH 8.0, 150 mM NaCl, 10% glycerol, 4 CMC LDAO; mass from a calibration with globular standards. For orientation: In gel filtration, larger molecules generally elute earlier.

The term stoichiometry N denotes a count of units in the complex or per binding partner.

As to “H. pylori PflB_(Δ140), the periplasmic α-helical domain of paralyzed flagellum protein B (domain or fragment)”, the stoichiometry N is above 4.
